Measured values published in doi:10.1101/2023.06.07.544024 (bioRxiv, 2023).

B1: HflK (natural protein, E. coli)
chain: MAWNQPGNNGQDRDPWGSSKPGGNSEGNGNKGGRDQGPPDLDDIFRKLSKKLGGLGGGKGTGSGGGSSSQGPRPQLGGRVVTIAAAAIVIIWAASGFYTIKEAERGVVTRFGKFSHLVEPGLNWKPTFIDEVKPVNVEAVRELAASGVMLTSDENVVRVEMNVQYRVTNPEKYLYSVTSPDDSLRQATDSALRGVIGKYTMDRILTEGRTVIRSDTQRELEETIRPYDMGITLLDVNFQAARPPEEVKAAFDDAIAARENEQQYIREAEAYTNEVQPRANGQAQRILEEARAYKAQTILEAQGEVARFAKLLPEYKAAPEITRERLYIETMEKVLGNTRKVLVNDKGGNLMVLPLDQMLKGGNAPAAKSDNGASNLLRLPPASSSTTSGASNTSSTSQGDIMDQRRANAQRNDYQRQGE
B2: HflC (natural protein, E. coli)
chain: MRKSVIAIIIIVLVVLYMSVFVVKEGERGITLRFGKVLRDDDNKPLVYEPGLHFKIPFIETVKMLDARIQTMDNQADRFVTKEKKDLIVDSYIKWRISDFSRYYLATGGGDISQAEVLLKRKFSDRLRSEIGRLDVKDIVTDSRGRLTLEVRDALNSGSAGTEDEVTTPAADNAIAEAAERVTAETKGKVPVINPNSMAALGIEVVDVRIKQINLPTEVSEAIYNRMRAEREAVARRHRSQGQEEAEKLRATADYEVTRTLAEAERQGRIMRGEGDAEAAKLFADAFSKDPDFYAFIRSLRAYENSFSGNQDVMVMSPDSDFFRYMKTPTSATR

Target: FtsH (E. coli, UniProt P0AAI3 1-644)
Sequence (P0AAI3 whole entry): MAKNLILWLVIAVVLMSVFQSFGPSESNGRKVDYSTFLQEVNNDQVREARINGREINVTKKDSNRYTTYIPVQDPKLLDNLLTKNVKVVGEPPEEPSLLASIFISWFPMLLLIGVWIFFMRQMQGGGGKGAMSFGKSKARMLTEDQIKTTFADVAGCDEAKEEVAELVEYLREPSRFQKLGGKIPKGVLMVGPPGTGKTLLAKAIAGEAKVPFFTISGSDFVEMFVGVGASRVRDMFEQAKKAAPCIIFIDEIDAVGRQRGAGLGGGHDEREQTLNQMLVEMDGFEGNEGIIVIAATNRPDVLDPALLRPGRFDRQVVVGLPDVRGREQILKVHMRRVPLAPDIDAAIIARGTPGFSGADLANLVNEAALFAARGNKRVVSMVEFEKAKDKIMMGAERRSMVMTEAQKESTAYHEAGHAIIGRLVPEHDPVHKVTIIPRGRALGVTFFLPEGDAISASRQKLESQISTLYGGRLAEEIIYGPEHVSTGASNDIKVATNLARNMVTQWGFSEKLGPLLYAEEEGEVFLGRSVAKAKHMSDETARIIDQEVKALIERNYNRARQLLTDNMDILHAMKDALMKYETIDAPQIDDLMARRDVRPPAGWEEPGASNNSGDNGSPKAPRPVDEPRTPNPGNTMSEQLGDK
Experiment: cross-linking

Binder | binding result
B1 | binds
B2 | binds
